Data reported in article PMC6297244, “Synthesis and Kinetic evaluation of an azido analogue of methylerythritol phosphate: a Novel Inhibitor of E. coli YgbP/IspD” (Scientific Reports, 2018).

Key:
[1] = substrate: Nc1ccn([C@@H]2O[C@H](COP(=O)(O)OP(=O)(O)OP(=O)(O)O)[C@@H](O)[C@H]2O)c(=O)n1; assay: Michaelis-Menten and bi-substrate steady-state kinetics (apparent Km), malachite green assay; type: biochemical, Escherichia coli; settings: Mg2+ ([…] MgCl2 in assay); MEP as co-substrate CTP-binding pocket; sequential mechanism
[2] = substrate: C[C@](O)(CO)[C@H](O)COP(=O)(O)O; assay: as above; type: biochemical, Escherichia coli; settings: Mg2+ ([…] MgCl2 in assay); CTP as co-substrate sequential mechanism; ternary complex with CTP

B1: YgbP/IspD (Escherichia coli K-12) (protein)
chain: ATTHLDVCAVVPAAGFGRRMQTECPKQYLSIGNQTILEHSVHALLAHPRVKRVVIAISPGDSRFAQLPLANHPQITVVDGGDERADSVLAGLKAAGDAQWVLVHDAARPCLHQDDLARLLALSETSRTGGILAAPVRDTMKRAEPGKNAIAHTVDRNGLWHALTPQFFPRELLHDCLTRALNEGATITDEASALEYCGFHPQLVEGRADNIKVTRPEDLALAEFYLTRTIHQENT
Km [1]: 84 ± 9 µM | Km [2]: 40 ± 7 µM
